Residue numbers refer to the chain shown, from its start.
T1: Acetyl-CoA synthetase AcsA (Bacillus subtilis) (Bacillus subtilis) (UniProt P39062)
T1 sequence: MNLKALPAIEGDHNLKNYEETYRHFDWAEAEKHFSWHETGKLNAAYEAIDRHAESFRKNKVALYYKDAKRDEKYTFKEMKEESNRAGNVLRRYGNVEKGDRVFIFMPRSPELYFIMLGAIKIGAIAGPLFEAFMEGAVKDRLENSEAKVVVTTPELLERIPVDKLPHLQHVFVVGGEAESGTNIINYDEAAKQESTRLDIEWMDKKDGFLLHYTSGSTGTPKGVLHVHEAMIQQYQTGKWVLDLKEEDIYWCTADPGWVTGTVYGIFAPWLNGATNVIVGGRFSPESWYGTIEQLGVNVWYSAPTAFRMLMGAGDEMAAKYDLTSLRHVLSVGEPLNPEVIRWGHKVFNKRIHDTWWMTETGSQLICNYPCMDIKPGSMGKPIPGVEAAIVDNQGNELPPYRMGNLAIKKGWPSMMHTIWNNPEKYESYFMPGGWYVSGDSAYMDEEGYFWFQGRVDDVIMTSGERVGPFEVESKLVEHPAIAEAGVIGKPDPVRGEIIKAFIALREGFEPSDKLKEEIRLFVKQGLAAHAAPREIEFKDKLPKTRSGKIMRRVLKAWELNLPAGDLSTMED

B1: GCN5-related N-acetyltransferase AcuA (Bacillus subtilis) (enzyme)
chain: MEHHKTYHSANIKTATGSLLIEGPVSPEDLAGYEFHKDLTAFRPPREQHEALVDIAGLPEGRIIIARDGRTIVGYVTYLYPDPLERWSEGNMEDLIELGAIEVAPDYRGCAVGKTLLTVSMMDEQMENYIVMTTEYYWHWDLKGMKKDVWEYRKIMEKMMNAGGLVWFATDEPEISSHPANCLMARIGKNVSQESIEQFDRLRFYHRYMY
B2: GST-AcuA_E102Q (enzyme, Bacillus subtilis)
chain: B1 chain with E102Q
notes: source: E. coli BL21(DE3), purified
B3: Acetyl-CoA synthetase AcsA (Bacillus subtilis) (enzyme)
chain: T1 sequence
notes: AcsA, acetyl-CoA synthetase of Bacillus subtilis; gene amplified from genomic DNA of strain 3610; catalytic lysine K549; the gene came from strain 3610; Monomer and dimer seen by mass photometry; also called Ac-CoA synthetase; source: E. coli BL21(DE3), purified (HisTrap, SEC)

Columns and labels:
AcuA = molecular target: T2, AcuA (Bacillus subtilis, UniProt P39065); experiment: isothermal titration calorimetry, one binding site model
T2 construct: monomer 21 kDa by mass photometry

[1] = molecular target: B3; experiment: cell-based or functional assay
[2] = molecular target: B3; experiment: pull-down; 200 μg GST-tagged protein immobilised on GST-Sepharose beads in spin columns, 200 μg partner added in SEC buffer (20 mM HEPES-Na pH 7.5, 200 mM NaCl, 20 mM KCl, 20 mM MgCl2), 30 min, three washes, elution with 20 mM GSH, Coomassie-stained SDS-PAGE; without Ac-CoA (also with 1 mM ATP, 1 mM AMP or 130 μM CoA, or with AcuB and AcuC added); details: both partners purified
[3] = molecular target: T1, Acetyl-CoA synthetase AcsA (Bacillus subtilis) (Bacillus subtilis)
purified protein = substrate: CC(=O)O; experiment: purified protein; details: without AcuA; 1 mM CoA, ATP 2.5 mM or 2 mM, 0.1 mM DTT, room temperature
[4] = molecular target: the molecule itself; experiment: mass photometry; TwoMP mass photometer, SEC buffer, 37.5 nM final protein concentration; proteins alone or 37.5 nM AcsA with 37.5 nM AcuA

For `CC(=O)SCCNC(=O)CCNC(=O)[C@H](O)C(C)(C)COP(=O)(O)OP(=O)(O)OC[C@H]1O[C@@H](n2cnc3c(N)ncnc32)[C@H](O)[C@@H]1OP(=O)(O)O` [Ac-CoA], the Kd (AcuA) was 9.47 ± 0.51 µM.

B1 was tested, and the “Vmax of Ac-CoA production by AcsA (HPLC) at AcsA:AcuA ratios 1:0.5, 1:1, 1:2, 1:5: 1834 down to 390 nmol mg^−1 min^−1 (without AcuA 2167)” value [1] was 1830 nmol/mg/min.

B2: binds [2].

RLRFYHRYMY [AcuA C-terminus peptide (201-…-210)] was tested, and the AcsA activity (HPLC) with 0-1 mM AcuA C-terminus peptide; reduction of activity at 1 mM [3] was 90%.

For B3, the Km (purified protein) was 430 µM, the Vmax (purified protein) was 2.17 µmol/min/mg and the “stoichiometry N” value [4] was 2.

— PMC11910552, “Regulation of acetyl-CoA biosynthesis via an intertwined acetyl-CoA synthetase/acetyltransferase complex” (Nature Communications, 2025)
